Test results published in patent US20050119174A1, “Novel blood sugar controller and method of screening the same” (Sumitomo Pharmaceuticals Co. Ltd., priority 2002, published 2005).
One block for each molecule: values may come before it. Where no end group is shown, it is not given here.

Key:
CXCR3 [1] = molecular target: T1, CXCR3 (Homo sapiens, UniProt P49682); conditions: J. Biol. Chem., 273(29): 18288-18291 (1998); Eur. J. Immunol., 29 (1999); cited from earlier work
T1 sequence (P49682 1-368): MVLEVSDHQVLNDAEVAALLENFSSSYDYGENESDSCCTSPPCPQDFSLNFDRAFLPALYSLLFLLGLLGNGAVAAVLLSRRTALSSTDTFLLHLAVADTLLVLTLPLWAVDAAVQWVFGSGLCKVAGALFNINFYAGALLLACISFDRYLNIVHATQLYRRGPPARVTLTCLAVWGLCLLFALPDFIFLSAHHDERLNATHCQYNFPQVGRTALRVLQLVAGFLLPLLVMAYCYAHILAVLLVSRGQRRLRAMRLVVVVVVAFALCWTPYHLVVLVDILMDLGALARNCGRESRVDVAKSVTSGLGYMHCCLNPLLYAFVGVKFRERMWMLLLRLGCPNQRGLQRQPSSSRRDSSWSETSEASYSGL

CXCR3 [2] = molecular target: T1, CXCR3; experiment: Calcium signaling using FLIPR, CHO/Gqi5 line stably expressing CXCR3 (#122-17); type: cell-based; design: prepared by amplifying the coding region of human CXCR3 by the PCR technique; expressed in transfected cells; host or cells: CHO/Gqi5 cells; conditions: #122-17 line, FIG. 6; for concentration dependency of the response: human ligands at 100, 300, 1,000 ng/ml; for ligand concentration from which responsiveness could be confirmed: human ligands
Method: 1×10^6 cells were sown to a T25 flask, and cultured in a CO2 incubator for 24 hours. pcDNA3.1/Zeo-CXCR3 was cleaved with the restriction endonuclease SspI, and linearized at the vector portion. 2.5 μg of this plasmid DNA was diluted in 250 μl of OPTI-MEM, and 15 μl of LipofectAmine was diluted in 250 μl of OPTI-MEM. Both were mixed and allowed to stand at room temperature for 30 minutes, after which 2 ml of a serum-free F12 medium was added, and the mixture was added to a flask once washed with a serum-free F12 medium. After cultivation in a CO2 incubator for 4 hours, the medium was replaced with a 10% FBS-supplemented F12 medium (once washed), and cultivation was conducted in a CO2 incubator for 48 hours. The cells were recovered and sown to a 96-well plate at 1, 5 or 25 cells/well. At this time, Zeocin was added at 250 μg/ml. Three 96-well plates for each cell concentration, i.e., a total of nine plates, were cultured. About 20 days later, cells were recovered from the wells with evidence of cell proliferation, and sown to a 96-well Black bottom clear plate (Corning). Next day the plate was subjected to a measurement using FLIPR®, and selection of lines showing good ligand responsiveness was performed. For the lines showing good ligand responsiveness, recloning was performed. Each was selected at 0.1 cells/well on the 96-well plate, cells were recovered from the wells showing evidence of cell proliferation after about 20 days, and line selection was performed in the same manner as above.
The cells recovered from each well were sown to a 96-well Black bottom clear plate (Corning). When cell counting was possible, the cells were sown at 2×10^4 cells/well. Next day, the medium was removed, 50 μl of an H/H/F/PB solution containing 2 μM Fluo-3-AM and 0.02% Pluronic acid was added, and cultivation was conducted in a CO2 incubator for 1 hour. The medium was replaced with 100 μl of H/H/F/PB solution and heating was conducted in a CO2 incubator for 10 minutes, after which the plate was set to FLIPR® and further heated at 37° C. for 10 minutes, after which 25 μl of the ligand similarly heated at 37° C. was added using an injector, and a measurement of calcium signaling was conducted.
By the aforementioned method of (2)-2., pcDNA3.1/Zeo-CXCR3 was cleaved with the restriction endonuclease SspI and linearized at the vector portion. This was transfected to CHO/Gqi5 cells, and drug-resistant lines were selected using 250 μg/ml zeocin to obtain 156 drug-resistant lines. Next, for these resistant lines, responsiveness to IP-10 was confirmed using FLIPR®, and lines showing high ligand responsiveness (6 clones) were isolated. […]

CXCR3 [3] = molecular target: T1, CXCR3; experiment: Calcium signaling using FLIPR, CHO/Gqi5 cells transiently expressing CXCR3; type: cell-based; design: prepared by amplifying the coding region of human CXCR3 by the PCR technique; expressed in transfected cells; host or cells: CHO/Gqi5 cells; conditions: pcDNA3.1/Zeo-CXCR3 transiently transfected CHO/Gqi5 cells; human ligands, 300 ng/ml; FIG. 5
Method: (§1) CHO/Gqi5 cells, at 2×10^4 cells/well, were sown to a 96-well Black bottom clear plate (Corning), and cultured in the absence of antibiotics in a CO2 incubator for 24 hours. 50 ng of pcDNA3.1/Zeo-CXCR3 or pcDNA3.1 was diluted in 5 μl of OPTI-MEM, and 0.3 μl of LipofectAmine was diluted in 5 μl of OPTI-MEM. Both were mixed and allowed to stand at room temperature for 30 minutes, after which 40 μl of a serum-free F12 medium was added, and the mixture was added to wells once washed with a serum-free F12 medium. After cultivation in a CO2 incubator for 4 hours, the medium was replaced with a 10% FBS-supplemented F12 medium (once washed), and the cells were cultured in a CO2 incubator for 24 hours and subjected to a measurement using FLIPR®.
(§2) The cells recovered from each well were sown to a 96-well Black bottom clear plate (Corning). When cell counting was possible, the cells were sown at 2×10^4 cells/well. Next day, the medium was removed, 50 μl of an H/H/F/PB solution containing 2 μM Fluo-3-AM and 0.02% Pluronic acid was added, and cultivation was conducted in a CO2 incubator for 1 hour. […]

[4] = tested on: diabetic model mouse C57BL/KsJ-db/db mice; experiment: Oral glucose tolerance test; type: in vivo; conditions: for blood glucose levels at 90 minutes after glucose loading: db/db mice, intravenous mouse Mig or human I-TAC, versus solvent control group, FIG. 4; for glucose tolerance ameliorating effect (blood glucose level after glucose loading): db/db mice fasted overnight, intravenous, mouse IP-10 6 μg/head, GLP-1 (7-36 Amide) 50 μg/head, 3 g/kg D-glucose orally, 0-135 minutes, FIGS. 2 and 3
Method: In the test, diabetic model mouse C57BL/KsJ-db/db mice (male, SPF grade, 7-week old, Clea Japan) were fasted overnight from the day before testing, mouse IP-10 (PEPRO TECH) or GLP-1 (7-36 Amide) (Peptide Institute), previously dried, was dissolved in physiological saline (Otsuka Pharmaceutical), and intravenous administration was conducted (6 μg/head; n=4 for IP-10, 50 μg/head; n=4 for GLP-1). For a solvent control group, physiological saline (Otsuka Pharmaceutical) was used (n=4). After intravenous administration, 3 g/kg of D-glucose was orally administered. Before glucose loading (0 minute) and 15, 45, 90 and 135 minutes after glucose loading, blood was collected from the caudal vein, and blood glucose levels were measured in accordance with the method described below.
That is, 10 μl of blood was collected and mixed with 100 μL of 0.4 N perchloric acid, further 50 μL of 0.37 M potassium carbonate was added, and the supernatant after centrifugation was analyzed using the Glucose CII•Test Wako (glucose quantitation kit, mutarotase•GOD method, Wako Pure Chemicals) to determine the blood glucose level.
Also for Mig and I-TAC, which are CXCR3 ligands other than IP-10, mouse Mig or human I-TAC (both manufactured by BIOCARTA), previously dried, was dissolved in physiological saline (Otsuka Pharmaceutical), intravenous administration was conducted, and glucose tolerance ameliorating action was evaluated by the same technique.

[5] = tested on: CHO/Gqi5 cell line incorporating an empty vector (pcDNA3.1); experiment: Calcium signaling using FLIPR, CHO/Gqi5 cells transfected with control pcDNA3.1 (empty vector); type: cell-based; conditions: control pcDNA3.1 transfected CHO/Gqi5 cells; human ligands, 300 ng/ml; FIG. 5
Method: as §1, §2

human CXCR3 (human) = human CXCR3 (human) (UniProt P49682); experiment: cell-based or functional assay

Molecule: MCP-3: CC chemokine known to weakly bind to CXCR3
binding to CXCR3 (CXCR3 [1]): weakly bind

ligand concentration from which responsiveness could be confirmed (CXCR3 [2]): ≥ 100 ng/mL
responsiveness to ligand (calcium signaling, fluorescence intensity) (CXCR3 [3]): a response was observed
Molecule: I-TAC: CXC chemokine, physiological ligand for CXCR3; human I-TAC
concentration dependency of the response (CXCR3 [2]): concentration dependency could be confirmed
blood glucose levels at 90 minutes after glucose loading [4]: decreased compared to the solvent control group
responsiveness to ligand (calcium signaling, fluorescence intensity) [5]: no response was detected

Molecule: MIP-3a: CC chemokine known to weakly bind to CXCR3
binding to CXCR3 (CXCR3 [1]): weakly bind

lowest ligand concentration giving a calcium response (FLIPR) in the CXCR3 stably expressing CHO/Gqi5 line #122-17 (human CXCR3 (human)): 300 ng/mL
Molecule: Human IP-10 (Peprotech) (from UniProt P02778 22-98) (ligand)

lowest ligand concentration giving a calcium response (FLIPR) in the CXCR3 stably expressing CHO/Gqi5 line #122-17 (human CXCR3 (human)): 100 ng/mL
Molecule: human I-TAC (G/T) (from UniProt O14625 22-94) (ligand)

Molecule: RANTES: CC chemokine known to weakly bind to CXCR3
binding to CXCR3 (CXCR3 [1]): weakly bind

Molecule: eotaxin: CC chemokine known to weakly bind to CXCR3
binding to CXCR3 (CXCR3 [1]): weakly bind

Molecule: MCP-4: CC chemokine known to weakly bind to CXCR3
binding to CXCR3 (CXCR3 [1]): weakly bind

Molecule: GLP-1 (7-36 Amide) (HAEGTFTSDVSSYLEGQAAKEFIAWLVKGR-NH2; UniProt P01275 98-127, looked up) [a kind of incretin known to act on the pancreas to promote insulin secretion (Peptide Institute), reference compound]
glucose tolerance ameliorating effect (blood glucose level after glucose loading) [4]: glucose tolerance ameliorating effect

ligand concentration from which responsiveness could be confirmed (CXCR3 [2]): ≥ 300 ng/mL
responsiveness to ligand (calcium signaling, fluorescence intensity) (CXCR3 [3]): a response was observed
Molecule: IP-10: CXC chemokine, physiological ligand for CXCR3; mouse IP-10 (PEPRO TECH) in Example 1, human IP-10 (Peprotech) in Example 4
concentration dependency of the response (CXCR3 [2]): concentration dependency could be confirmed
glucose tolerance ameliorating effect (blood glucose level after glucose loading) [4]: glucose tolerance ameliorating effect nearly equivalent, on a dose basis, to that of GLP-1
responsiveness to ligand (calcium signaling, fluorescence intensity) [5]: no response was detected

B1: 6Ckine: CC chemokine known to weakly bind to CXCR3 (protein, UniProt O00585 24-134, looked up)
C-C motif chemokine 21: SDGGAQDCCLKYSQRKIPAKVVRSYRKQEPSLGCSIPAILFLPRKRSQAELCADPKELWVQQLMQHLDKTPSPQKPAQGCRKDRGASKTGKKGKGSKGCKRTERSQTPKGP
binding to CXCR3 (CXCR3 [1]): weakly bind

B2: Mig: CXC chemokine, physiological ligand for CXCR3; mouse Mig (BIOCARTA) (protein, UniProt P18340 22-126, looked up)
C-X-C motif chemokine 9: TLVIRNARCSCISTSRGTIHYKSLKDLKQFAPSPNCNKTEIIATLKNGDQTCLDPDSANVKKLMKEWEKKISQKKKQKRGKKHQKNMKNRKPKTPQSRRRSRKTT
blood glucose levels at 90 minutes after glucose loading [4]: decreased compared to the solvent control group
